{
  "source": "patent US20160194394A1",
  "about": "(GOVERNING COUNCIL OF THE UNIVERSITY OF TORONTO, published 2016)",
  "binders": {"B1": {"name": "D11 (Fab)", "light": "DIQMTQSPSSLSASVGDRVTITCRASQSVSSAVAWYQQKPGKAPKLLIYSASSLYSGVPSRFSGSRSGTDFTLTISSLQPEDFATYYCQQYFPSGLITFGQGTKVEIKRTVAAPSVFIFPPSDSQLKSGTASVVCLLNNFYPREAKVQWKVDNALQSGNSQESVTEQDSKDSTYSLSSTLTLSKADYEKHKVYACEVTHQGLSSPVTKSFNRGECGGS", "heavy": "EVQLVESGGGLVQPGGSLRLSCAASGFNISYSYMHWVRQAPGKGLEWVASISPSSGYTSYADSVKGRFTISADTSKNTAYLQMNSLRAEDTAVYYCARSVSWWYSWWSWGMDYWGQGTLVTVSSASTKGPSVFPLAPSSKSTSGGTAALGCLVKDYFPEPVTVSWNSGALTSGVHTFPAVLQSSGLYSLSSVVTVPSSSLGTQTYICNVNHKPSNTKVDKKVEPKSC", "notes": "selection round 3; also called Fzd7-R3-D11"}, "B2": {"name": "B2 (Fab)", "light": "DIQMTQSPSSLSASVGDRVTITCRASQSVSSAVAWYQQKPGKAPKLLIYSASSLYSGVPSRFSGSRSGTDFTLTISSLQPEDFATYYCQQAYAYLITFGQGTKVEIKRTVAAPSVFIFPPSDSQLKSGTASVVCLLNNFYPREAKVQWKVDNALQSGNSQESVTEQDSKDSTYSLSSTLTLSKADYEKHKVYACEVTHQGLSSPVTKSFNRGECGGS", "heavy": "EVQLVESGGGLVQPGGSLRLSCAASGFNISYSSMHWVRQAPGKGLEWVASISSSYGYTYYADSVKGRFTISADTSKNTAYLQMNSLRAEDTAVYYCARSGGHFYYWYVAAAMDYWGQGTLVTVSSASTKGPSVFPLAPSSKSTSGGTAALGCLVKDYFPEPVTVSWNSGALTSGVHTFPAVLQSSGLYSLSSVVTVPSSSLGTQTYICNVNHKPSNTKVDKKVEPKSC", "notes": "selection round 2; not the round 3 clone B2 (f33); also called Fzd7-R2-B2"}, "B3": {"name": "B7 (Fab)", "light": "B2 light with A93Y, Y94P, I96F", "heavy": "EVQLVESGGGLVQPGGSLRLSCAASGFNISYSSMHWVRQAPGKGLEWVASIYPSYGYTSYADSVKGRFTISADTSKNTAYLQMNSLRAEDTAVYYCARVYWSSSYWAGGYWVGSAFDYWGQGTLVTVSSASTKGPSVFPLAPSSKSTSGGTAALGCLVKDYFPEPVTVSWNSGALTSGVHTFPAVLQSSGLYSLSSVVTVPSSSLGTQTYICNVNHKPSNTKVDKKVEPKSC", "notes": "selection round 3; also called Fzd7-R3-B7"}, "B4": {"name": "C12 (Fab)", "light": "B2 light with A91S, Y92S, A93Y, Y94S", "heavy": "EVQLVESGGGLVQPGGSLRLSCAASGFNLSYSYMHWVRQAPGKGLEWVASIYSSYGYTSYADSVKGRFTISADTSKNTAYLQMNSLRAEDTAVYYCARYYGWAYYYSYFPAWAGGGIDYWGQGTLVTVSSASTKGPSVFPLAPSSKSTSGGTAALGCLVKDYFPEPVTVSWNSGALTSGVHTFPAVLQSSGLYSLSSVVTVPSSSLGTQTYICNVNHKPSNTKVDKKVEPKSC", "notes": "selection round 2; same four CDRs as Fzd7-R3-B2 (f33); also called Fzd7-R2-C12"}, "B5": {"name": "C1 (Fab)", "light": "B2 light with A91Y, Y92G, A93H", "heavy": "EVQLVESGGGLVQPGGSLRLSCAASGFNLYSYSMHWVRQAPGKGLEWVASISSYYGSTYYADSVKGRFTISADTSKNTAYLQMNSLRAEDTAVYYCARAHGSSPGWYYAPYAGGGLDYWGQGTLVTVSSASTKGPSVFPLAPSSKSTSGGTAALGCLVKDYFPEPVTVSWNSGALTSGVHTFPAVLQSSGLYSLSSVVTVPSSSLGTQTYICNVNHKPSNTKVDKKVEPKSC", "notes": "selection round 2; also called Fzd7-R2-C1"}},
  "note": "Changes are numbered by the printed parent chain.",
  "data": [
    {"target": "T1, recombinant Frizzled receptor 7 (FZD7) cysteine-rich domain (CRD) fused to the Fc region of human IgG (human, UniProt O75084 33-185)", "test": "ELISA, 1ug/ml (20nM) Fab [cont'd]", "protocol": "(§1) FIG. 2B is a table depicting the binding of purified Fabs to purified FZD7-Fc measured by ELISA. Fabs purified from 25 ml bacterial cultures were assayed for binding to FZD7-Fc fusion protein (R&D systems) and Fc protein. ELISA plates (384 well) were coated with 2 ug/ml of protein in PBS overnight at four degrees. Wells were blocked with 0.5% BSA/PBS for 1 hour at room temperature, washed three times with 0.05% Tween20/PBS (wash buffer), and then primary dilutions of Fabs in 0.5% BSA/0.05% Tween20/PBS (dilution buffer) were added at indicated concentrations. Fabs were incubated for 1 hour at room temperature, wells were washed six times, and anti-FLAG-HRP (Sigma) was added at 1:5000 in dilution buffer. Secondary antibody was incubated for 45 minutes at room temperature, and wells were washed six times and developed with TMB substrate with an acid stop. The absorbance at 450 nm was read. n.t.=not tested.", "values": [
      {"binder": "B1", "OD 450": 1.42},
      {"binder": "B2", "OD 450": 3.19},
      {"binder": "B3", "OD 450": 2.12},
      {"binder": "B4", "OD 450": 2.87},
      {"binder": "B5", "OD 450": 3.15}
    ]},
    {"target": "T2, Fc control protein", "T2 construct": "also called Fc protein; control Fc protein", "test": "ELISA, 1ug/ml (20nM) Fab [cont'd]", "protocol": "as §1", "values": [
      {"binder": "B1", "OD 450": 0.06},
      {"binder": "B2", "OD 450": 0.06},
      {"binder": "B3", "OD 450": 0.06},
      {"binder": "B4", "OD 450": 0.05},
      {"binder": "B5", "OD 450": 0.06}
    ]},
    {"target": "T1, recombinant Frizzled receptor 7 (FZD7) …", "test": "ELISA, 10ug/ml (200nM) Fab [cont'd]", "protocol": "as §1", "values": [
      {"binder": "B1", "OD 450": 2.79},
      {"binder": "B2", "OD 450": 3.18},
      {"binder": "B3", "OD 450": 3.06},
      {"binder": "B4", "OD 450": 3.15},
      {"binder": "B5", "OD 450": 3.19}
    ]},
    {"target": "T2, Fc control protein", "test": "ELISA, 10ug/ml (200nM) Fab [cont'd]", "protocol": "as §1", "values": [
      {"binder": "B1", "OD 450": 0.15},
      {"binder": "B2", "OD 450": 0.13},
      {"binder": "B3", "OD 450": 0.07},
      {"binder": "B4", "OD 450": 0.07},
      {"binder": "B5", "OD 450": 0.14}
    ]},
    {"target": "T3, FZD7 receptor expressed on cells (full-length) (UniProt O75084 33-574, limits assumed)", "T3 construct": "whole, on cells; MDA MB 231 cells may carry other Frizzled receptors too; also called full-length FZD7 receptor; endogenous receptor on MDA MB 231 cells", "test": "flow cytometry, 200 nM Fab, MDA MB 231 [cont'd]", "protocol": "(§2) FIG. 3 is a table depicting the binding of the purified Fabs to cells expressing FZD7 (flow cytometry). Small scale Fabs were assayed for binding to full-length FZD7 receptor to an over-expression line in MDA MB 231 cells. In parallel, Fabs were assayed for binding to endogenous receptor expressed on the MDA MB 231 cells. Cells were harvested using an EDTA solution, blocked in 2% FBS/PBS (stain buffer), and stained with 200 nM Fab for 30 min on ice. Cells were washed two times with stain buffer and incubated with anti-F(ab′)₂-APC secondary antibody (Jackson Immuno) at 1:1000 for 15 minutes on ice. All antibodies were diluted in stain buffer. Cells were washed three times with stain buffer and then fixed with 1% paraformaldehye for analysis by flow cytometry. […] The percent of the cell population within the positive gates is indicated.", "units": {"% population within the positive gate": "%"}, "values": [
      {"binder": "B1", "% population within the positive gate": 1.2},
      {"binder": "B2", "% population within the positive gate": 7.1},
      {"binder": "B3", "% population within the positive gate": 0.7},
      {"binder": "B4", "% population within the positive gate": 11.9},
      {"binder": "B5", "% population within the positive gate": 66.5}
    ]},
    {"target": "T3, FZD7 receptor expressed on cells …", "test": "flow cytometry, 200 nM Fab, FZD7 over-expression line (MDA MB 231) [cont'd]", "protocol": "as §2", "units": {"% population within the positive gate": "%"}, "values": [
      {"binder": "B1", "% population within the positive gate": 81},
      {"binder": "B2", "% population within the positive gate": 86.8},
      {"binder": "B3", "% population within the positive gate": 80.1},
      {"binder": "B4", "% population within the positive gate": 86.9},
      {"binder": "B5", "% population within the positive gate": 87.3}
    ]}
  ]
}
